The values below come from PMC5138847 (Scientific Reports, 2016).

Positions count from the first letter of the chain named. In names and notes the source's numbering stands.

The target of series [1] is T1, DrUox (zebrafish urate oxidase, uricase) (Danio rerio, UniProt Q6DG85, F216S).
T1 construct: gene uox; full length, 298 aa; N-terminal 6xHis tag (pET28b) for wt and F216S kinetics, untagged for crystals; E. coli BL21-CodonPlus(DE3); homotetramer
T1 sequence (Q6DG85 1-298 F216S): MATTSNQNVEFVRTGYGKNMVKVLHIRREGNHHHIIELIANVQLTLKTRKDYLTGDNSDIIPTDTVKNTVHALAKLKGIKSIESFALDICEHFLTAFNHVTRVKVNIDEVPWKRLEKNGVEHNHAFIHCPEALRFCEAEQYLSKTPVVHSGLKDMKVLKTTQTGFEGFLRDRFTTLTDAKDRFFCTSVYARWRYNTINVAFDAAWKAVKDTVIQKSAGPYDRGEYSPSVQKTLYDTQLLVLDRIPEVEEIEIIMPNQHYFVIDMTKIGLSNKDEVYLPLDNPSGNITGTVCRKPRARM
Put plainly: UV absorbance at […] nm, global fit to competitive inhibition. The format is biochemical. As to conditions: read-out: Xanthine / Ki.

Series [2] deals with T2, DrUox (zebrafish urate oxidase, uricase) (Danio rerio, UniProt Q6DG85).
T2 construct: gene uox; full length, 298 aa; N-terminal 6xHis tag (pET28b) for wt and F216S kinetics, untagged for crystals; E. coli BL21-CodonPlus(DE3); homotetramer
T2 sequence (Q6DG85 1-298): T1 sequence (Q6DG85 1-298 F216S) with S216F
Put plainly: UV absorbance, global fit to competitive inhibition. Type of series: biochemical. As to conditions: read-out: Xanthine / Ki.

Substrate in the series “purified protein”: O=c1[nH]c(=O)c2[nH]c(=O)[nH]c2[nH]1
Put plainly: purified protein. As to conditions: 100 mM potassium phosphate pH 7.6, 25 °C, equimolar DrUrah.

Series [3] concerns the molecule itself. Put plainly: SEC; HPLC-SEC on a Superdex 200 increase 3.2/300 column, native conditions, about 13 ug of each sample, elution monitored at 280 nm, calibrated with standards.
Series [4] deals with the molecule itself. Put plainly: crystal structure; untagged DrUox 10 mg/ml (10 mM Tris-HCl pH 7.6, 1 mM EDTA), crystallised in 0.1 M Tris-HCl pH 8.5, 8% PEG 8000; space group P21, two tetramers in the asymmetric unit; 2.8 A.

As for `O=c1[nH]c(=O)c2[nH]cnc2[nH]1` [xanthine], the values for the Ki in series [1] and in series [2] were 59.2 ± 8.2 µM and 4.3 ± 0.27 µM, respectively.

B1: DrUox (zebrafish urate oxidase, uricase) (Danio rerio) (protein)
chain: T1 sequence (Q6DG85 1-298 F216S) with S216F
Regarding B1, in the series “purified protein”, the Km (as a rule, the substrate concentration at which the rate is half of its maximum) worked out at 11 ± 1 µM; the kcat (as a rule, the maximal rate divided by the concentration of active sites) worked out at 3.95 s⁻¹; the catalytic efficiency (kcat/Km) (commonly the turnover number divided by the Michaelis constant) came to 360000 M⁻¹ s⁻¹.

B2: zebrafish urate oxidase, His-tagged wild type (enzyme, zebrafish (Danio rerio), UniProt Q6DG85 1-298, looked up)
chain: T1 sequence (Q6DG85 1-298 F216S) with S216F
notes: also called wt DrUox; His-tagged wt; source: E. coli BL21-CodonPlus(DE3), purified (Talon cobalt resin)
Take B2: the stoichiometry N – broadly, a count of units in the complex or per binding partner – in series [3] came out at 4.

B3: zebrafish (Danio rerio) urate oxidase, untagged wild type (enzyme, UniProt Q6DG85 1-298, looked up)
chain: T1 sequence (Q6DG85 1-298 F216S) with S216F
notes: cDNA IMAGE:100059545; In the crystal, electron density runs from Gly8 to Pro294; Cys129 forms an inter-subunit disulfide (chains A-C and B-D); also called DrUox; Uox; source: E. coli BL21-CodonPlus(DE3), purified (xanthine-agarose column, eluted with urate)
On to B3, for which the “stoichiometry N” value in series [4] came to 4.

B4: zebrafish urate oxidase F216S mutant, His-tagged (enzyme, zebrafish (Danio rerio), UniProt Q6DG85 1-298, looked up)
chain: T1 sequence (Q6DG85 1-298 F216S)
notes: also called F216S DrUox; mutant DrUox; source: E. coli BL21-CodonPlus(DE3), purified (Talon cobalt resin)
For B4, in the series “purified protein”, the Km was 284 ± 31 µM, the kcat was found to be 3.99 s⁻¹ and the catalytic efficiency (kcat/Km) was 14000 M⁻¹ s⁻¹. In series [3], the “stoichiometry N” value was determined as 4.
